# Values quoted from earlier work, collected in publication PMC5983787.
# Where two headings read alike, the source gives them in different places.
# Legend:
# [1] = biological target: Cx43 (UniProt P17302)
# [2] = biological target: Cx43 (UniProt P17302); remark: listed apart in the source
# Sequence of UniProt P17302 (P17302 2-382): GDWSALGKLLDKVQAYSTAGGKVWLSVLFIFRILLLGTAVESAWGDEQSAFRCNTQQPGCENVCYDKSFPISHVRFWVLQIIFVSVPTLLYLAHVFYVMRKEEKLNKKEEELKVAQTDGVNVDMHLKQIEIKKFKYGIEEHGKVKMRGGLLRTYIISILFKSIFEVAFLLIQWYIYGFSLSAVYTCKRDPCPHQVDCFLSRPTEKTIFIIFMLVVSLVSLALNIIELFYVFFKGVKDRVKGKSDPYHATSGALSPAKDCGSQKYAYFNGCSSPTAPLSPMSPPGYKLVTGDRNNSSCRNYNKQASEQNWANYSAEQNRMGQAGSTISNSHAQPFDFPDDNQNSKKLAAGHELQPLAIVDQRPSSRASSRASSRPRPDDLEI
substance,measurement,setting,value
Nedd4 (from UniProt P46934),Kd,[1],1060 µM
same,Kd,[2],585 µM
